Measurements from patent publication US20180171024A1.

Tests used:
[1] = biological target: HLA-A2 on cells (tumor cell lines, normal primary cells, PBMCs) (human); assay: flow cytometry, Caco2 cells
[2] = biological target: HLA-A2 on cells (tumor cell lines, normal primary cells, PBMCs) (human); assay: flow cytometry, PBMCs #YE, 10 µg/ml
[3] = biological target: HLA-A2 on cells (tumor cell lines, normal primary cells, PBMCs) (human); assay: flow cytometry, A498 cells, 10 µg/ml
[4] = biological target: HLA-A2 on cells (tumor cell lines, normal primary cells, PBMCs) (human); assay: flow cytometry, H2228 cells, 10 µg/ml
[5] = biological target: HLA-A2 on cells (tumor cell lines, normal primary cells, PBMCs) (human); assay: flow cytometry, 501A cells
[6] = biological target: HLA-A2 on cells (tumor cell lines, normal primary cells, PBMCs) (human); assay: flow cytometry, HepG2 cells
[7] = biological target: HLA-A2 on other WT1 negative HLA-A2+ cells (other than 501, A498 and SKMEL; members not named); assay: flow cytometry on IM-9 cells (WT1 mRNA -)
[8] = biological target: HLA-A2 on cells (tumor cell lines, normal primary cells, PBMCs) (human); assay: flow cytometry, A375 melanoma cells, 10 µg/ml
[9] = biological target: HLA-A2 on cells (tumor cell lines, normal primary cells, PBMCs) (human); assay: flow cytometry, 501A melanoma cells
[10] = biological target: HLA-A2 on cells (tumor cell lines, normal primary cells, PBMCs) (human); assay: flow cytometry, MEWO melanoma cells
[11] = biological target: HLA-A2 on cells (tumor cell lines, normal primary cells, PBMCs) (human); assay: flow cytometry, cardiac myocytes #6200-2, 10 µg/ml
[12] = biological target: HLA-A2 on cells (tumor cell lines, normal primary cells, PBMCs) (human); assay: flow cytometry, WM-115 melanoma cells
[13] = biological target: HLA-A2 on cells (tumor cell lines, normal primary cells, PBMCs) (human); assay: flow cytometry, IM-9 cells, 10 µg/ml
[14] = biological target: HLA-A2/ARHGAP on T2 cells (human); assay: flow cytometry, T2 cells loaded with ARHGAP peptide
[15] = biological target: HLA-A2 on cells (tumor cell lines, normal primary cells, PBMCs) (human); assay: flow cytometry, SET-2 cells, 10 µg/ml
[16] = biological target: HLA-A2 on cells (tumor cell lines, normal primary cells, PBMCs) (human); assay: flow cytometry, ST486 cells, 10 µg/ml
[17] = biological target: HLA-A2/MAGE-A4 230-239 complex on cells (human); assay: flow cytometry, T2 cells loaded with 10^-4 M peptide
[18] = biological target: HLA-A2/MAGE-A9 223-231 complex on T2 cells (human); assay: as above
[19] = biological target: HLA-A2/PAP 112-120 complex on T2 cells (human); assay: as above
[20] = biological target: HLA-A2 on cells (tumor cell lines, normal primary cells, PBMCs) (human); assay: flow cytometry, KYSE-140 cells, 10 µg/ml
[21] = biological target: HLA-A2 on cells (tumor cell lines, normal primary cells, PBMCs) (human); assay: flow cytometry, astrocytes #1800, 10 µg/ml
[22] = biological target: HLA-A2 on HLA-A2+/WT1+ BV173 cells (WT1 mRNA positive; WT1 126-134 peptide not detected by mass spectrometry of eluted HLA peptides); assay: flow cytometry on BV173 cells (WT1 mRNA +)
[23] = biological target: HLA-A2/KPNA1 on T2 cells (human); assay: flow cytometry, T2 cells loaded with KPNA1 [..], 10 µg/ml
[24] = biological target: HLA-A2 on unloaded T2 cells (human); assay: flow cytometry, unloaded T2 cells, 10 µg/ml
[25] = biological target: HLA-A2/TyrD-S2 on T2 cells (human); assay: flow cytometry, T2 cells loaded with TyrD S2 [..], 10 µg/ml
[26] = biological target: HLA-A2/TyrD-S6 on T2 cells (human); assay: flow cytometry, T2 cells loaded with TyrD S6 [..], 10 µg/ml
[27] = biological target: HLA-A2/TyrD-S8 on T2 cells (human); assay: flow cytometry, T2 cells loaded with TyrD S8 [..], 10 µg/ml
[28] = biological target: HLA-A2 on cells (tumor cell lines, normal primary cells, PBMCs) (human); assay: flow cytometry, 501A melanoma cells, 10 µg/ml
[29] = biological target: HLA-A2 on cells (tumor cell lines, normal primary cells, PBMCs) (human); assay: flow cytometry, 501A melanoma cells, 10 µg/ml; remark: listed apart in the source
[30] = biological target: HLA-A2/TyrD-S14 on T2 cells (human); assay: flow cytometry, T2 cells loaded with TyrD S14 [..], 10 µg/ml
[31] = biological target: HLA-A2/TyrD-S22 on T2 cells (human); assay: flow cytometry, T2 cells loaded with TyrD-S22 [..], 10 µg/ml
[32] = biological target: HLA-A2/Tyrosinase369-377 complex on cells (human); assay: flow cytometry, T2 cells loaded with TYR peptide
[33] = biological target: HLA-A2/209M on T2 cells (human); assay: flow cytometry, T2 cells loaded with 209M peptide
[34] = biological target: Unloaded T2 (Homo sapiens); assay: flow cytometry, unloaded T2 cells, PE anti-mouse
[35] = biological target: HLA-A2 on cells (tumor cell lines, normal primary cells, PBMCs) (human); assay: flow cytometry, endothelial cells HUE-1, 10 µg/ml
[36] = biological target: HLA-A2 on cells (tumor cell lines, normal primary cells, PBMCs) (human); assay: flow cytometry, renal epithelial cells 4120, 10 µg/ml
[37] = biological target: HLA-A2/Tyrosinase369-377 complex on cells (human); assay: flow cytometry, T2 cells loaded with TyrD [..], 10 µg/ml
[38] = biological target: HLA-A2/TyrN on T2 cells (human); assay: flow cytometry, T2 cells loaded with TyrN [..], 10 µg/ml
[39] = biological target: HLA-A2/WT1-S3 on T2 cells (human); assay: flow cytometry, peptide-loaded T2 cells (10^-4-10^-5 M), PE anti-mouse
[40] = biological target: HLA-A2/Tyrosinase369-377 complex on cells (human); assay: flow cytometry, T2 cells loaded with TyrD peptide ([..] printed under the label), 10 µg/ml

For BB7.2 (antibody), the GeoMean [1] was 123, the MFI [2] was 366 and the MFI [3] was 170. For the same substance, the MFI [4] was 210, the GeoMean [5] was 1290 and the GeoMean [6] was 154. For the same substance, the MFI [7] was 727, the MFI [8] was 196 and the MFI [9] was 389. The MFI [10] was 76, the MFI [11] was 733 and the MFI [12] was 127. The MFI [13] was 457, the MFI [14] was 2580 and the MFI [15] was 274. For the same substance, the MFI [16] was 681, the MFI [17] was 492 and the MFI [18] was 486. The MFI [19] was 540, the MFI [20] was 36.1 and the MFI [21] was 751. The MFI [22] was 962, the MFI relative to background [23] was 729 and the MFI relative to background [24] was 286. It also gave an MFI relative to background [25] of 929, an MFI relative to background [26] of 516 and an MFI relative to background [27] of 539. For the same substance, the MFI [28] was 243, the MFI [29] was 760 and the MFI relative to background [30] was 565. For the same substance, the MFI relative to background [31] was 464, the MFI [32] was 2200 and the MFI [33] was 2870. The MFI [34] was 1050, the MFI [35] was 133 and the MFI [36] was 889. It also gave an MFI relative to background [37] of 561, an MFI relative to background [38] of 483 and an MFI [39] of 1410. The MFI relative to background [40] was 848.
